Values of other authors as cited in publication PMC8227800.

Target: Cdh2 (Danio rerio) (UniProt Q90275)

Kd: 200 nM
Substance: Cdh2 (from UniProt Q90275)
